Paper PMC11670205 (Frontiers in Immunology, 2024)

What was measured:
[1] = biological target: human TSLP receptor complex composed of IL-7Rα and TSLPR expressed on cell surface of transfected HEK293T (human) (UniProt Q9HC73)
[2] = biological target: T1, recombinant mouse TSLP (Mus musculus, UniProt Q9JIE6); test: ELISA; recombinant TSLP coated at 1 μg/mL in DPBS pH 7.2 overnight at 4°C; antibodies in serial 3-fold dilutions from 1 μg/mL, 2 hours at room temperature; HRP anti-human IgG detection; conditions: both partners purified
T1 construct: thymic stromal lymphopoietin, mouse; also called murine TSLP; source: bought: AcroBiosystems
T1 sequence (Q9JIE6 20-140): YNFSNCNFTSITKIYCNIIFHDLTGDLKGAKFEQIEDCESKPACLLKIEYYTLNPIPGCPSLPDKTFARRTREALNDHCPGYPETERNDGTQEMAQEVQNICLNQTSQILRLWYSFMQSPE

[3] = biological target: T2, recombinant cynomolgus monkey TSLP (Macaca fascicularis, UniProt A0A7N9CAT7); test: as above; conditions: both partners purified
T2 construct: thymic stromal lymphopoietin, cynomolgus monkey; source: bought: AcroBiosystems

Sequence of human TSLP receptor complex composed of IL-7Rα and TSLPR expressed on cell surface of transfected HEK293T (human) (Q9HC73 23-371, chain 1 of 2): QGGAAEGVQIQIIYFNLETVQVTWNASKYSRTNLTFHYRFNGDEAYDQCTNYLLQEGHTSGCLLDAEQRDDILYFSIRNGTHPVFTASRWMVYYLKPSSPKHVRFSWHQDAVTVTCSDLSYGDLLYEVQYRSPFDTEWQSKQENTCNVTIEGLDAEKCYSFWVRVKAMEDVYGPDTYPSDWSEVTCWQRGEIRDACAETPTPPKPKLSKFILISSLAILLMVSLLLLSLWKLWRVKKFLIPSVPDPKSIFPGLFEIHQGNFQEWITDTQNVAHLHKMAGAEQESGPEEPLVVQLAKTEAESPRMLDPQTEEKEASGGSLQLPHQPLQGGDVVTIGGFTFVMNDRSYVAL
Sequence of human TSLP receptor complex composed of IL-7Rα and TSLPR expressed on cell surface of transfected HEK293T (human) (chain, as listed by the source, chain 2 of 2): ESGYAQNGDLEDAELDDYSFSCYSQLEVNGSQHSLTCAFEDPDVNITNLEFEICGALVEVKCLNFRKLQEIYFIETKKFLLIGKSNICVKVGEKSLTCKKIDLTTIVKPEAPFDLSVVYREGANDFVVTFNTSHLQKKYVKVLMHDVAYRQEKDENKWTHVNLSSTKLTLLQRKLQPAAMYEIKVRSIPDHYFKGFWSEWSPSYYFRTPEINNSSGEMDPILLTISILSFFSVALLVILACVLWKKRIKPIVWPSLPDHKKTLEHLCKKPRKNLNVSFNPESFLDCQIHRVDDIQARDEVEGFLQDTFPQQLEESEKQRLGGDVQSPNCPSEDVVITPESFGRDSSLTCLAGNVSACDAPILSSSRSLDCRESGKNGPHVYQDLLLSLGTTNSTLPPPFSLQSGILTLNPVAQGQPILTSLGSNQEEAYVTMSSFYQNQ

recombinant human thymic stromal lymphopoietin (from UniProt Q969D9 29-159) (ligand)
EC50 of TSLP-driven STAT5 luciferase reporter gene expression in HEK293T cells transfected with TSLPR and IL-7Rα [1]: 1.1 ng/mL

B1: tezepelumab analogue antibody (antibody, V domains shown)
VH: QMQLVESGGGVVQPGRSLRLSCAASGFTFRTYGMHWVRQAPGKGLEWVAVIWYDGSNKHYADSVKGRFTITRDNSKNTLNLQMNSLRAEDTAVYYCARAPQWELVHEAFDIWGQGTMVTVSS
VL: SYVLTQPPSVSVAPGQTARITCGGNNLGSKSVHWYQQKPGQAPVLVVYDDSDRPSWIPERFSGSNSGNTATLTISRGEAGDEADYYCQVWDSSSDHVVFGGGTKLTVL
notes: heavy chain of tezepelumab as deposited in PDB 5J13; rest of the heavy chain constant region (hinge, Fc) beyond what the PDB entry holds; light chain of tezepelumab as deposited in PDB 5J13; It was captured by anti-Fc probes and detected with anti-human IgG; also called AMG157; MEDI9929; source: Expi293F, transfected, purified (MabSelect SuRe, desalting column)
binding result [2]: no binding (tested: 1 μg/mL) | binding result [3]: binds
